Consider 2 proteins from PMC2394828 (Acta Crystallographica Section D: Biological Crystallography, 2007).

Several values for one entry are separate records, joined by “and”; a condition that tells them apart may be missing. Equal entries are not always repeated.

The data set “AUC + SEC” deals with the molecule itself. The experiment in a line: AUC + SEC.
Data set [1] deals with the molecule itself. The experiment in a line: crystal structure.
Data set [2] concerns the molecule itself. The experiment in a line: crystal structure. This is another data set of the same source.

B1: thioredoxin peroxidase B from human erythrocytes (enzyme, UniProt P32119 1-198, looked up)
chain: MASGNARIGKPAPDFKATAVVDGAFKEVKLSDYKGKYVVLFFYPLDFTFVCPTEIIAFSNRAEDFRKLGCEVLGVSVDSQFTHLAWINTPRKEGGLGPLNIPLLADVTRRLSEDYGVLKTDEGIAYRGLFIIDGKGVLRQITVNDLPVGRSVDEALRLVQAFQYTDEHGEVCPAGWKPGSDTIKPNVDDSKEYFSKHN
Consider B1, for which the “stoichiometry N” value is 8 and 12 in “AUC + SEC”; 10 in the data set “crystal structure [1]”.

B2: anti-TRAP from Bacillus licheniformis (natural protein, UniProt Q65NU7 1-53, looked up)
chain: MVIATDDLETTCPNCNGSGREEPEPCPKCSGKGVILTAQGSTLLHFIKKHLNE
As to B2, the “stoichiometry N” value in the data set “crystal structure [2]” stood at 12.

A word on the stoichiometry N: it is a count of units in the complex or per binding partner.
